Biological target: Rae1–Nup98_(GLEBS) complex, P78406
Experiment: ITC

KPLTKKNYSELDDEEPMELDYP (modifications not checked) [SARS-CoV-1 Orf6CTT (22-mer peptide, residues 42–63 of SARS-CoV-1 Orf6)]
Kd: 278 nM
stoichiometry N: 1
